Measured values from patent US8748182B2, “Mutant proteins and methods for producing them” (Heptares Therapeutics Limited, priority 2007, dated 2014).
“And” between values parts separate entries of the source, which are not always exact repeats. Equal values may be shown once. Where a name gives a salt, the structure may show the parent alone. Read-outs that look alike come from different tables or passages of the source.

Tests used:
[1] = target: T1, βAR-m23 (Meleagris gallopavo, UniProt P07700, A282L/C116L/F327A/F338M/M90V/R68S/Y227A); type: binding, turkey
[2] = target: T1, βAR-m23; assay: biochemical; type: binding, turkey
[3] = Stability of βAR-m23 and βAR34-424 in different detergents (Ni-NTA partially purified); type: physicochemical
Method: FIGS. 6A-6C Stability of βAR-m23 and βAR34-424 in five different detergents. […] Assays were carried out as described in the Methods and the Tm is shown at the intersection between the curves and the discontinuous line. Results are from duplicate measurements in a representative experiment performed in parallel.
Membranes prepared from E. coli expressing βAR-m23 or βAR34-424 were solubilised in DDM, bound to Ni-NTA agarose then washed with either DDM, decylmaltoside (DM), octylglucoside (OG), lauryldimethylamine oxide (LDAO) or nonylglucoside (NG). […] In contrast, functional βAR-m23 was still present in all detergents and the Tm could be determined. As expected, the smaller detergents were considerably more denaturing than either DDM (Tm 52° C.) or DM (Tm 48° C.), with Tms of 25° C. (NG), 23° C. (LDAO) and 17° C. (OG). The difference in Tm between βAR-m23 and βAR34-424 is about 20° C., irrespective of whether the receptors were solubilised in either DDM or DM; […] . The selection strategy used for the generation of βAR-m23 was chosen deliberately to be based upon thermostability, because it is far simpler to apply than selecting for stability in detergents of increasing harshness.
Receptors were eluted in 2×100 μl of buffer (0.4 M NaCl, 1 mM EDTA, 250 mM imidazole pH 8, plus the relevant detergent). […] .
Single point binding assays contained 20 mM Tris pH 8, 0.4 M NaCl, 1 mM EDTA, 0.1% DDM (or corresponding detergent) with 50 nM [^3H]-DHA and 20-100 μg membrane protein in a final volume of 120 μl; equilibration was for 1 h at 4° C. Thermostability was assessed by incubating the binding assay mix, with or without [^3H]-DHA at the specified temperature for 30 minutes; reactions were placed on ice and [^3H]-DHA added as necessary and equilibrated for a further hour. Receptor-bound and free radioligand were separated by gel filtration as described previously. Non-specific binding was determined in the presence of 1 μM of s-propranolol. […] Radioactivity was counted on a Beckman LS6000 liquid scintillation counter and data were analyzed by nonlinear regression using Prism software (GraphPad).

[4] = Thermostability assay of detergent-solubilised βAR34-424 and mutants expressed in E. coli ([3H]-DHA binding after heating 30 min)
Method: To determine Tm in the absence of ligand (apo-state, discontinuous lines), detergent-solubilised receptors were incubated for 30 minutes at the temperatures indicated before carrying out the binding assay. […] Data points are from duplicates measurements in a representative experiment.
Binding assays were performed using [^3H]-dihydroalprenolol (DHA) as radioligand as described under “Methods”. Samples were heated for 30 minutes at different temperatures before the assay. […] Data points are from duplicates of one single experiment. This experiment has been repeated several times with similar results.
Expression of βAR and the mutants was performed in XL10 cells (Stratagene). Cultures of 50 ml of 2×TY medium containing ampicillin (100 μg/ml) were grown at 37° C. with shaking until OD600=3 and then induced with 0.4 mM IPTG. Induced cultures were incubated at 25° C. for 4 h and then cells were harvested by centrifugation at 13,000×g for 1 min (aliquots of 2 ml) and stored at −20° C. For the assays, cells were broken by freeze-thaw (five cycles), resuspended in 500 μl of buffer [20 mM Tris pH 8, 0.4 M NaCl, 1 mM EDTA and protease inhibitors (Complete™, Roche)]. After an incubation for 1 h at 4° C. with 100 μg/ml lysozyme and DNase I (Sigma), samples were solubilized with 2% DDM on ice for 30 minutes. Insoluble material was removed by centrifugation (15,000×g, 2 min, 4° C.) and the supernatant was used directly in radioligand binding assays.
Single point binding assays contained 20 mM Tris pH 8, 0.4 M NaCl, 1 mM EDTA, 0.1% DDM (or corresponding detergent) with 50 nM [^3H]-DHA and 20-100 μg membrane protein in a final volume of 120 μl; equilibration was for 1 h at 4° C. Thermostability was assessed by incubating the binding assay mix, with or without [^3H]-DHA at the specified temperature for 30 minutes; reactions were placed on ice and [^3H]-DHA added as necessary and equilibrated for a further hour. […] Radioactivity was counted on a Beckman LS6000 liquid scintillation counter and data were analyzed by nonlinear regression using Prism software (GraphPad).

[5] = [3H]-DHA bound during the heating step

T1 sequence (P07700 34-424 R68S/M90V/C116L/Y227A/A282L/F327A/F338M): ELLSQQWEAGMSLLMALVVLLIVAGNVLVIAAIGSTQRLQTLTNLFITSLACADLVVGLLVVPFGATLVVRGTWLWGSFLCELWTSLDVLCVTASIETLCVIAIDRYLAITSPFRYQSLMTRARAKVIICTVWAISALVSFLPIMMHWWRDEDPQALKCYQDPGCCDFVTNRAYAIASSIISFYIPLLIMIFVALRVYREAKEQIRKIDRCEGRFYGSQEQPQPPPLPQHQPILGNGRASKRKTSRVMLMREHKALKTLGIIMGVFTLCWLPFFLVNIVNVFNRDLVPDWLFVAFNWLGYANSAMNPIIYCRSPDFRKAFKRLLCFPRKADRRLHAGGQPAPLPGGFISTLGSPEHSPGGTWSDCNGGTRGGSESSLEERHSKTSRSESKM

1-[4,6-propyl-^3H]-dihydroalprenolol [[^3H]-dihydroalprenolol]
Kd ([1]; membranes, n=2, read-out: KD of [3H]-dihydroalprenolol): 6.5 ± 0.2 nM
Kd ([1]; semipurified receptor, read-out: KD for [3H]-DHA binding): 12.5 nM

C=CCc1ccccc1OC[C@@H](O)CNC(C)C [alprenolol, (−) alprenolol tartrate salt]
EC50 [2]: 112 nM

m23: βAR34-424 with R68S, M90V, Y227A, A282L, F327A, F338M
Tm in DDM ([3]; DDM): 52 °C
Tm in DM ([3]; DM (decylmaltoside)): 48 °C
Tm in LDAO ([3]; LDAO): 23 °C
Tm in NG ([3]; NG (nonylglucoside)): 25 °C
Tm in OG ([3]; OG (octylglucoside)): 17 °C
difference in Tm between βAR-m23 and βAR34-424 ([3]; solubilised in either DDM or DM): about 20 °C
increase in Tm compared to βAR34-424 (native protein) ([4]; DDM-solubilised, heated without ligand): 21 °C
Tm (° C.) ([4]; Table 2, heated 30 min without ligand, then [3H]-DHA binding, DDM-solubilised, E. coli, mean ± S.E. from duplicates): 52.8 °C and 52.8 ± 1.4 °C
Tm with antagonist bound [4, 5]: 55 °C
increase in Tm with bound antagonist versus without antagonist [4, 5]: 2 °C
further increase in Tm on adding one mutation to the preceding mutant ([4]; m4-1 to m4-7 to m4-2, m18 to m23): 3 °C
